Assay results from patent US20190322730A1 (NGM BIOPHARMACEUTICALS, published 2019).

Experiments:
[1] = biological target: T1, human complement component C3 (human, UniProt P01024 23-667; P01024 672-1663); test: cell-based or functional assay
[2] = biological target: T2, cynomolgus monkey complement component C3 (cynomolgus monkey, UniProt P01024 24-1663 (human entry)); test: cell-based or functional assay
[3] = biological target: T1, human complement component C3; test: SPR (Biacore), antibody captured by anti-Fc, C3 injected 0.62-40 nM, 37 C
Protocol: (§1) The binding affinities of exemplary anti-C3 antibodies to human C3 and cyno C3 were measured using a Biacore system (GE Healthcare LifeSciences). Briefly, anti-Fc antibody (Sigma-Aldrich) was immobilized on all four flow cells of a CM5 chip using amine coupling reagents (GE Healthcare LifeSciences). Antibodies were captured on flow cells 2, 3, and 4 using flow cell 1 as a reference. Concentrations ranging from 0.62-40 nM of human C3 or cyno C3 were injected at a flow rate of 50 μL/min at 37° C. Kinetic data were collected over time and fit using the simultaneous global fit equation to yield affinity constants (KD values) for each antibody.

[4] = biological target: T2, cynomolgus monkey complement component …; test: as above
Protocol: as §1

[5] = biological target: T1, human complement component C3; test: SPR (Biacore), 37 C
Protocol: as §1

[6] = biological target: T2, cynomolgus monkey complement component …; test: SPR (Biacore), 37 C
Protocol: as §1

C3a [7] = biological target: T3, C3a (human, UniProt P01024 672-748); test: binding screen of Example 5, relative to control mIgG2
C3d [8] = biological target: T4, C3d (UniProt P01024 1002-1303, limits assumed); test: as above
T4 construct: domain: C3d

Factor Bb [9] = biological target: T5, Factor Bb (UniProt P00751 260-764); test: as above
T5 construct: domain: Factor Bb

[10] = biological target: T1, human complement component C3; test: binding screen of Example 5; method and unit not stated
C3a [11] = biological target: T3, C3a; test: as above
C3d [12] = biological target: T4, C3d; test: as above
Factor Bb [13] = biological target: T5, Factor Bb; test: as above
C3b = C3b (human, UniProt P01024 23-667; P01024 749-1663); test: as above
[14] = biological target: T1, human complement component C3; test: SPR (Biacore)
Protocol: as §1

[15] = biological target: T1, human complement component C3; test: cell-based or functional assay; remark: listed apart in the source
[16] = biological target: T1, human complement component C3; test: cell-based or functional assay; remark: listed apart in the source
[17] = biological target: T1, human complement component C3; test: cell-based or functional assay; remark: listed apart in the source
[18] = biological target: T2, cynomolgus monkey complement component …; test: cell-based or functional assay; remark: listed apart in the source
[19] = biological target: T1, human complement component C3; test: cell-based or functional assay; remark: listed apart in the source
[20] = biological target: T1, human complement component C3; test: SPR (Biacore); Intact antibody
[21] = biological target: T1, human complement component C3; test: SPR (Biacore), antibody captured by anti-Fc, C3 injected, 37 C
Protocol: as §1
(§2) A Biacore system was used to assess the binding affinities of the different molecules to human C3. […] Human C3 (concentration range 12-100 nM) was injected at a flow rate of 50 μL/min.

[22] = biological target: T1, human complement component C3; test: SPR (Biacore), antibody captured by anti-Fc, C3 injected, 25 C; 25° C.
Protocol: as §1, §2

[23] = biological target: T1, human complement component C3; test: SPR (Biacore); remark: listed apart in the source

T2 sequence (P01024 other isoform, or with tags, fused parts or gaps): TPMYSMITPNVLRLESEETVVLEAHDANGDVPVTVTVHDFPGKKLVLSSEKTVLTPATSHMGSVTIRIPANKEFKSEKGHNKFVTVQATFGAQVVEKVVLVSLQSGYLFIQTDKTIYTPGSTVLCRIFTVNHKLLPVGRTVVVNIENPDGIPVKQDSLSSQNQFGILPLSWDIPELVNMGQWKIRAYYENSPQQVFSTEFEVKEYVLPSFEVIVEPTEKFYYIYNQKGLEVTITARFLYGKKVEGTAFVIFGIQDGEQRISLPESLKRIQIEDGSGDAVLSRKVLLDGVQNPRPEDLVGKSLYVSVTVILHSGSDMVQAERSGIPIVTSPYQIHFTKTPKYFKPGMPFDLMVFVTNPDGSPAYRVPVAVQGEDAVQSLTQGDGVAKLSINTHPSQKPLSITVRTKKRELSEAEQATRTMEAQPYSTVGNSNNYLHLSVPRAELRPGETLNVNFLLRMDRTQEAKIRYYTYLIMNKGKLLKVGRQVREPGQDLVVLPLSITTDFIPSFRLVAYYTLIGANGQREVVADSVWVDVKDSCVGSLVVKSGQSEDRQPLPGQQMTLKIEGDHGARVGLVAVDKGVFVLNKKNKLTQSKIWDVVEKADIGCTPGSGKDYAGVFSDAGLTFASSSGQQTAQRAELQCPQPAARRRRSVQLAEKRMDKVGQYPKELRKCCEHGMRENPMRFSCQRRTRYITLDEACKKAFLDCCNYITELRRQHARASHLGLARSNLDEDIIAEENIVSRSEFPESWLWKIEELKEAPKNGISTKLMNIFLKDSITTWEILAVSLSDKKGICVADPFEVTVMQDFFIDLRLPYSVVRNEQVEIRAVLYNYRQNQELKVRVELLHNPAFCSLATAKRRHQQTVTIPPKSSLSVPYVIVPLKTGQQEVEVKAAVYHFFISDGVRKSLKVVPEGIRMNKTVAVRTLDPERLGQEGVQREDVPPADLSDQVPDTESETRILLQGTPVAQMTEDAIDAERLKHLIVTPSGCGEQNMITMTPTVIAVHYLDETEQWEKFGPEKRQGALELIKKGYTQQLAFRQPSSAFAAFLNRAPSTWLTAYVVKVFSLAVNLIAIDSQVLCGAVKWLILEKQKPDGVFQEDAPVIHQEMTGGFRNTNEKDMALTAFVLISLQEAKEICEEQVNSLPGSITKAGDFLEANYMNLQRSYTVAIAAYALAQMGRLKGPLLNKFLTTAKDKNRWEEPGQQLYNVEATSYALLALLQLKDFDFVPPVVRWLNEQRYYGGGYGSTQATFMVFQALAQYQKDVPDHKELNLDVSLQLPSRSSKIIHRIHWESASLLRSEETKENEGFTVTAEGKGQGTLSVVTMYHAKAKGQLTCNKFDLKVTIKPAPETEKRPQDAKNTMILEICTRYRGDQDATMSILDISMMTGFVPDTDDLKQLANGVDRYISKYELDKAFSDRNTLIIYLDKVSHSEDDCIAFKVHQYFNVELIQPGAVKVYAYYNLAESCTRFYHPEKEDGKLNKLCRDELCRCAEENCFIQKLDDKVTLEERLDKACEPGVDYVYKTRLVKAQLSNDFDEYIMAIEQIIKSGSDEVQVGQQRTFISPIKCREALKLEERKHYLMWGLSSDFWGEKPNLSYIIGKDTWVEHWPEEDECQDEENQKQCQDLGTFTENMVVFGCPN
T3 sequence (P01024 672-748 limits assumed): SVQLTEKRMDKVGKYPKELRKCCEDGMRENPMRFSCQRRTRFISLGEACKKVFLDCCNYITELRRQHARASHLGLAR
T5 sequence (P00751 260-764 limits assumed): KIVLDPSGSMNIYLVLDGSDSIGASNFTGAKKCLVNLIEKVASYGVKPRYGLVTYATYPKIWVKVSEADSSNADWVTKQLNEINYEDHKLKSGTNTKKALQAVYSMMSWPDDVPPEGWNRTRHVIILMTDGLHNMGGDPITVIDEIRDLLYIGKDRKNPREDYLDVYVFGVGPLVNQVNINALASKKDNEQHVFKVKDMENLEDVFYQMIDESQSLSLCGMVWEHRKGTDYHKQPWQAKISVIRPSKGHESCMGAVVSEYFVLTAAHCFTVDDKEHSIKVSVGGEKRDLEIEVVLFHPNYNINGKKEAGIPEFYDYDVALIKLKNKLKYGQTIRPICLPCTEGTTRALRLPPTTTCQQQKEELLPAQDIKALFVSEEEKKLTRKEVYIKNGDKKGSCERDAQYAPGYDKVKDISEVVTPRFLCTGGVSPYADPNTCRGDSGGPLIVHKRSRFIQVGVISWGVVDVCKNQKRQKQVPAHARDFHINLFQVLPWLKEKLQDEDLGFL
T1 sequence (P01024 23-667, chain 1 of 2): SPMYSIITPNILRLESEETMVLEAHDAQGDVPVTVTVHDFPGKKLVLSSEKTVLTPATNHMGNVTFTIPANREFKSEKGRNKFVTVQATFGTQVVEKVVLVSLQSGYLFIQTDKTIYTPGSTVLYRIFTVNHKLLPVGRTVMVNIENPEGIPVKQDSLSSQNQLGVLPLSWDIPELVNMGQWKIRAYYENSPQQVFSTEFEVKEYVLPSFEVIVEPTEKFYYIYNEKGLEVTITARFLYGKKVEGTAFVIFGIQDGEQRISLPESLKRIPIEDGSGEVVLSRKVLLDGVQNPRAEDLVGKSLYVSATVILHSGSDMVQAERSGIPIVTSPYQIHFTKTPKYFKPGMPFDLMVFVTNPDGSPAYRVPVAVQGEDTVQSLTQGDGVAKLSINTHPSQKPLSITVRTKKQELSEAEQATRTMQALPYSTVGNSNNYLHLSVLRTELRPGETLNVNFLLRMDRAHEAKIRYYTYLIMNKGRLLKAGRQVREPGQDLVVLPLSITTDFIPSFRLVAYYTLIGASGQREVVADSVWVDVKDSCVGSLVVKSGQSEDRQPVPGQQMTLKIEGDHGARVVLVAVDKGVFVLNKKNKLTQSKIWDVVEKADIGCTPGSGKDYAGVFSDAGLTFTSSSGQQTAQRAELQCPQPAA
T1 sequence (P01024 672-1663, chain 2 of 2): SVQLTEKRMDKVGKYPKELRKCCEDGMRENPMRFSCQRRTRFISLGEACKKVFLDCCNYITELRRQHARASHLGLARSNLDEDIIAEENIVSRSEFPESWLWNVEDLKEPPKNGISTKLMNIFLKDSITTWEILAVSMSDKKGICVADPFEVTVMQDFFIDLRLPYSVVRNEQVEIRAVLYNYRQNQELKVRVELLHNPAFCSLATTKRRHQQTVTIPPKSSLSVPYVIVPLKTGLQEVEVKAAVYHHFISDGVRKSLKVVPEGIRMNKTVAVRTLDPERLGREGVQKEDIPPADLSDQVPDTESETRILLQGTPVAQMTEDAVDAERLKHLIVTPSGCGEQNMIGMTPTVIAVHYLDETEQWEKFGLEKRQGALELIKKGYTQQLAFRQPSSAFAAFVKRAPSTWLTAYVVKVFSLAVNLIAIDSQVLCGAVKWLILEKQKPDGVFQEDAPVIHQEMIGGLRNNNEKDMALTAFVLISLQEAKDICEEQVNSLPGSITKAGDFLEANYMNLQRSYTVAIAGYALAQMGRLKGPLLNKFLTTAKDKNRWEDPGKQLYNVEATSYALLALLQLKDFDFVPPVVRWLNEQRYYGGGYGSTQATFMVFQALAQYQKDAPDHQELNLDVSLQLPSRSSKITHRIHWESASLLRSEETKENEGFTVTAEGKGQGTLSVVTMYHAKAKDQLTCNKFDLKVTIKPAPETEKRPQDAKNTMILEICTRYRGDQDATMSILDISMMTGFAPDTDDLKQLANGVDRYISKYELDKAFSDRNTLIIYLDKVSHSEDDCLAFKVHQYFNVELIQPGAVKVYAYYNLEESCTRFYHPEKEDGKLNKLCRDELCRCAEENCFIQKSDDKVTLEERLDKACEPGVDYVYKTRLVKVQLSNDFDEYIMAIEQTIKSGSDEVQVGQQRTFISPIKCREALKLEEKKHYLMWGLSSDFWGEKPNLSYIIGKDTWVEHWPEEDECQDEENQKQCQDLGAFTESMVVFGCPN
T4 sequence (P01024 1002-1303 limits assumed): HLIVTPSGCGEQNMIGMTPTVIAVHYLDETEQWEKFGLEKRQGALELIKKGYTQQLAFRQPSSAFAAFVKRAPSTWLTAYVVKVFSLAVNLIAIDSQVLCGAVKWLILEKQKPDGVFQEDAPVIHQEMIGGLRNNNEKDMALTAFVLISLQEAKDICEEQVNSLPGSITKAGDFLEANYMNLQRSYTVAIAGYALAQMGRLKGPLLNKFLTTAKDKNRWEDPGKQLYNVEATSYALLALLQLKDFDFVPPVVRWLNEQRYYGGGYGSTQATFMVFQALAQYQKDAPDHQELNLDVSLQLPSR

B1: antibody 15C12 (antibody, V domains shown)
VH: EIQLQQSGAELEKPGASVKISCKASGYSFTGYNMHWVKQSHGKSLEWIGNINPYYGTTNSNQKFEDKATLTVDKSSSTAYMQLNSLTSEDSAVYYCARGIYYYGTGYPYFDFWGQGTTLTVSS
VL: DIQMTQTTSSLSASLGDRVTISCRASQDINNYLNWYLQKPDGTVKLLIYYTSRLHSGVPSRFSGSGSGTDYSLTISNLEQEDLATYFCQQGITLPWTFGGGTKLEIK
notes: Mouse hybridoma antibody
For B1, which “Hemolytic Assay IC50, Human AP” value [1] is on record?
Its value is 3.7 nM.

What about the “Hemolytic Assay IC50, Human CP” value [1] of the same binder?
The value was 3.8 nM.

What about the “Hemolytic Assay IC50, Cyno AP” value [2] of the same binder?
Its value is 8.8 nM.

What about the Kd [3] of the same binder?
The Kd was 0.13 nM.

What about the Kd [4] of the same binder?
The Kd was 0.13 nM.

B2: antibody 38G10 (antibody, V domains shown)
VH: EVQLQQSGPELVKPGDSVKMSCKASGYTFTDFYMDWVKQSHGKSLEWIGYIYPHNGGTTYNQNFTGKATLTVDKSSNTAYMELHSLTSEDSAVYYCARRGGFDFDYWGQGTTLTVSS
VL: NIVMTQSPKSMSLSVGERVTLRCKASENVDTYVSWYQQKPEQSPKLLIYGASNRYTGVPDRFTGSGSATEFTLTISSVQAEDLVGYHCGQSHSYPLTFGAGTKLELK
notes: Mouse hybridoma antibody; Parent of Hz38G10; also called parental 38G10 antibody
What does the source list for B2?
Kd [5]: ~0.1 nM; Kd [6]: ~0.1 nM; Hemolytic Assay IC50, Human AP [1]: 1.9 nM; Hemolytic Assay IC50, Human CP [1]: 1.7 nM; Hemolytic Assay IC50, Cyno AP [2]: 3.5 nM; binding result (C3a [7]): no binding; binding result (C3d [8]): no binding; binding result (Factor Bb [9]): no binding; binding relative to negative control mIgG2 [10]: 0.53; binding relative to negative control mIgG2 (C3a [11]): 0.02; binding relative to negative control mIgG2 (C3d [12]): 0; binding relative to negative control mIgG2 (Factor Bb [13]): 0.01; Kd [3]: 0.19 nM; Kd [4]: 0.16 nM

B3: antibody 3D8 (antibody, V domains shown)
VH: EIQLQQSGAELVKPGASVKISCKASGYSFTGYNMNWVKQSHGKSLEWIGNINPYYGSTNYNQKFKGKATLTVDKSSTTAYMQLDSLTSEDSAVYYCARGYYGGNYPFAYWGQGTLVTVSA
VL: DIQMTQSPASLSASVGETVTITCRASENIYSYLAWYQQKQGKSPQLLVYNAKTLAEGVPSRFSGSGSGTQFSLKINSLQPEDFGSYYCQHYYGTPYTFGGGSKVEIK
notes: Mouse hybridoma antibody raised against human C3
B3 was tested. Which “Hemolytic Assay IC50, Human AP” value [1] did it give?
Its value is 4.2 nM.

What about the “Hemolytic Assay IC50, Human CP” value [1] of the same binder?
Its value is 3.6 nM.

What about the “Hemolytic Assay IC50, Cyno AP” value [2] of the same binder?
Its value is 5.5 nM.

And the “binding relative to negative control mIgG2” value [10]?
Its value is 0.47.

What about the “binding relative to negative control mIgG2” value (C3a [11]) of the same binder?
The value was -0.01.

And the “binding relative to negative control mIgG2” value (C3b)?
Its value is 0.38.

What about the “binding relative to negative control mIgG2” value (C3d [12]) of the same binder?
Its value is 0.01.

And the “binding relative to negative control mIgG2” value (Factor Bb [13])?
The value was -0.01.

And the Kd [3]?
Its Kd is 1.9 nM.

And the Kd [4]?
The Kd was 1.4 nM.

B4: antibody Hz38G10 (antibody, human IgG1, kappa, V domains shown)
VH: QVQLVQSGAEVKKPGASVKVSCKASGYTFTDFYMDWVRQAPGQRLEWMGYIYPHNGGTTYNQQFTGRVTITVDKSASTAYMELSSLRSEDTAVYYCARRGGFDFDYWGQGTLVTVSS
VL: DIQMTQSPSSLSASVGDRVTITCKASENVDTYVSWYQQKPGKAPKLLIYGASNRYTGVPSRFSGSGSGTDFTFTISSLQPEDIATYHCGQSHSYPLTFGQGTKLEIKR
notes: also called humanized 38G10; Hz38G10 intact antibody
With B4 as the binder, how does the Kd [14] read?
Its Kd is 0.3 nM.

What about the Kd [6] of the same binder?
The Kd was 1.8 nM.

What about the “fold more effective than COMP or COMP-PEG in inhibiting the alternative pathway” value [15] of the same binder?
The value was ~10 fold.

And the “Alternative Pathway IC50 (hemolysis; run with COMP)” value [16]?
The value was 2.5 nM.

And the “Alternative Pathway IC50 (hemolysis; run with COMP-PEG)” value [16]?
The value was 4 nM.

And the “Classical Pathway IC50 (hemolysis; run with COMP)” value [16]?
Its value is 2 nM.

What about the “Classical Pathway IC50 (hemolysis; run with COMP-PEG)” value [16] of the same binder?
Its value is 4.1 nM.

What about the “Alternative Pathway IC50 (hemolysis), Human C3” value [17] of the same binder?
Its value is 3.9 nM.

And the “Classical Pathway IC50 (hemolysis), Human C3” value [17]?
Its value is 5.2 nM.

What about the “Alternative Pathway IC50 (hemolysis), Cyno C3” value [18] of the same binder?
The value was 4.8 nM.

And the “Classical Pathway IC50 (hemolysis), Cyno C3” value [18]?
Its value is 0.7 nM.

And the “AP human C3 IC50 (hemolysis)” value [19]?
The value was 5.9 nM.

And the “CP human C3 IC50 (hemolysis)” value [19]?
Its value is 4 nM.

What about the Kd [20] of the same binder?
The Kd was 0.027 nM.

And the Kd [21]?
Its Kd is 0.28 nM.

What about the Kd [22] of the same binder?
Its Kd is < 0.1 nM.

B5: Hz38G10 dsscFv (scFv)
scFv: MDIQMTQSPSSLSASVGDRVTITCKASENVDTYVSWYQQKPGKAPKLLIYGASNRYTGVPSRFSGSGSGTDFTFTISSLQPEDIATYHCGQSHSYPLTFGCGTKLEIKGGGGSGGGGSGGGGSQVQLVQSGAEVKKPGASVKVSCKASGYTFTDFYMDWVRQAPGQCLEWMGYIYPHNGGTTYNQQFTGRVTITVDKSASTAYMELSSLRSEDTAVYYCARRGGFDFDYWGQGTLVTVSS
notes: also called Hz38G10 VL-linker-VH dsscFv
Which results are given for B5?
Kd [23]: 0.035 nM; AP human C3 IC50 (hemolysis) [19]: 19.5 nM; CP human C3 IC50 (hemolysis) [19]: 15.3 nM
